Columns and labels:
[1] = target: T1, mouse nerve growth factor (muNGF) (Mus musculus, UniProt P01139); assay: cell-based or functional assay
[2] = target: T1, mouse nerve growth factor (muNGF); assay: SPR; ProteOn XPR36, GLM chip; muNGF amine-coupled (50 ug/mL, sodium acetate pH 4.5); NV-01 passed over at 500, 250, 125, 62.5 and 31.25 nM for 60 s; Langmuir fit; conditions: both partners purified
[3] = target: T1, mouse nerve growth factor (muNGF); assay: ELISA; plates coated with NGF (0.1 ug/ml muNGF; canine NGF in Figure 2A), blocked with 5% BSA/PBS; CHO cell supernatants with canine anti-NGF IgG 1 h at room temperature in PBS/1% BSA; detected with rabbit anti-canine IgG-HRP; conditions: one partner purified
[4] = target: T2, canine nerve growth factor with a C-terminal poly-His tag (Canis lupus familiaris, UniProt A0A8I3PYI3); assay: as above; conditions: one partner purified
T2 construct: canine beta NGF, expressed from a cDNA that encodes canine pre-pro beta NGF; the mature form is surmised; also called canine NGF; caNGF; source: HEK293 cells, transient transfection, purified from supernatant (Ni-HiTrap); not shown: poly-His, C-terminal, kept

T1 sequence (P01139 122-241): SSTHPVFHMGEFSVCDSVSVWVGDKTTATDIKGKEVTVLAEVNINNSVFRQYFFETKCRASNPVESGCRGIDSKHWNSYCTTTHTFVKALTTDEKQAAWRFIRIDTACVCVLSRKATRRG

B1: NV-01 (caN2-HCA1-kLC1), fully caninised anti-NGF monoclonal antibody (antibody, V domains shown)
VH: EVQLVESGGGLVQPGGSLRLSCVASGFSLTNNNVNWVRQAPGKGLEWVGGVWAGGATDYNSALKSRFTISRDNAKNTVFLQMHSLRSEDTAVYYCARDGGYSSSTLYAMDAWGQGTSVTVSS
VL: DIVMTQSPASLSLSQGETVTITCRASEDIYNALAWYQQKPGQAPKLLIYNTDTLHTGVPSRFSGSGSGTDFSLTISSLEPEDVAVYYCQHYFHYPRTFGQGTKVELK
notes: caN2 heavy chain variable domain (caninised rat alphaD11 VH, modified framework); caninised alphaD11 light chain variable domain (caN-kLC1); canine kappa light chain constant domain; Canine IgG-A, kappa; also called caninised anti-NGF mAb; copies: 2 + 2
Q: How did the “IC50 of inhibition of NGF-induced proliferation of TF-1 cells (1 ng/ml NGF; NV-01 2.5 ng/ml to 0.002 ng/ml); blocked: NGF and its receptor on TF-1 cells” value [1] turn out when B1 was run?
A: The value was 0.02 ng/mL.

Q: And the Kd [2]?
A: Its Kd is under 1 pM.

B2: caN-HCB2 + kLC1, caninised anti-NGF antibody with canine IgG heavy chain isotype B (antibody, V domains shown)
VH: EVQLVESGGDLVNPGGTLTLSCVVSGFSLTNNNVNWVRQALGRGLEWVGGVWAGGATDYNSALKSRLTITRDTSKSTVFLKMHSLQSEDTATYYCARDGGYSSSTLYAMDAWGQGTLVTVSS
VL: B1 VL
notes: caN heavy chain variable domain (first caninised alphaD11 VH); as the light chain variable domain of m1 (caN-kLC1); canine kappa light chain constant domain; Canine IgG-B, kappa; also called caN-HCB-kLC; type B anti-NGF antibody; source: CHO cells, transient transfection, supernatant; purified on protein A
Q: Which results are given for B2?
A: binding result [3]: binds; binding result [4]: binds

B3: caN-HCA1 + kLC1, caninised anti-NGF antibody with canine IgG heavy chain isotype A (antibody, V domains shown)
VH: B2 VH
VL: B1 VL
notes: caN heavy chain variable domain (first caninised alphaD11 VH); as the light chain variable domain of m1 (caN-kLC1); canine kappa light chain constant domain; Canine IgG-A, kappa; also called caN-HCA + kLC; type A anti-NGF antibody; source: CHO cells, transient transfection, supernatant; purified using Protein L
Q: Does B3 bind [3]?
A: Result: binds

B4: caN-HCC1 + kLC1, caninised anti-NGF antibody with canine IgG heavy chain isotype C (antibody, V domains shown)
VH: B2 VH
VL: B1 VL
notes: caN heavy chain variable domain (first caninised alphaD11 VH); as the light chain variable domain of m1 (caN-kLC1); canine kappa light chain constant domain; Canine IgG-C, kappa; also called caN-HCC-kLC; type C anti-NGF antibody; source: CHO cells, transient transfection, supernatant; purified on Protein G
Q: Does B4 bind [3]?
A: Result: binds

B5: caN-HCD2 + kLC1, caninised anti-NGF antibody with canine IgG heavy chain isotype D (antibody, V domains shown)
VH: B2 VH
VL: B1 VL
notes: caN heavy chain variable domain (first caninised alphaD11 VH); as the light chain variable domain of m1 (caN-kLC1); canine kappa light chain constant domain; Canine IgG-D, kappa; also called caN-HCD + kLC; ca-HCD2 + kLC1; source: CHO cells, transient transfection, supernatant; purified using Protein L
Q: Does B5 bind [3]?
A: Result: binds
